According to the supplement of paper PMC11811203:

B1: THAP1; numbered along this chain (parent)
chain: MVQSCSAYGCKNRYDKDKPVSFHKFPLTRPSLCKEWEAAVRRKNFKPTKYSSICSEHFTPDCFKRECNNKLLKENAVPTIFLCTEPHDKKEDLLEPQEQLPPPPLPPPVSQVDAAIGLLMPPLQTPVNLSVFCDHNYTVEDTMHQRKRIHQLEQQVEKLRKKLKTAQQRCRRQERQLEKLKEVVHFQKEKDDVSERGYVILPNDYFEIVEVPA

Variants of: B1
Assay: THAP1 transcriptional activity (GFP+/GFP- enrichment relative to wild-type constructs) (ratio to WT); higher = more THAP1 activity (PSMB5 reporter activation)
Details: with PSMB5 promoter-GFP reporter
Procedure: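 Deep mutational scan of human THAP1. Site-saturation single amino acid variant library (residues 2-213) was expressed by lentivirus at MOI ~0.3 in THAP1-knockout HEK-293T cells carrying an endogenous PSMB5 promoter-GFP knock-in reporter. Five days post-transduction, BFP+ cells were FACS-sorted into GFP dim and GFP bright populations and variants were counted by Illumina sequencing. Activity is the GFP-bright/GFP-dim read fold change, mean of 2 replicates, divided by the mean fold change of wild-type (synonymous) constructs in the same screen pool; WT = 1.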

Variant	THAP1 transcriptional activity
MVQSCSAYGCKNRYDKDKPVSFHKFPLTRPSLCKEWEAAVRRKNFKPTKYSSICSEHFTPDCFKRECNNKLLKENAVPTIFLCTEPHDKKEDLLEPQEQLRPPPLPPPVSQVDAAIGLLMPPLQTPVNLSVFCDHNYTVEDTMHQRKRIHQLEQQVEKLRKKLKTAQQRCRRQERQLEKLKEVVHFQKEKDDVSERGYVILPNDYFEIVEVPA [P101R]	1.3
MVQSCSAYGCKNRYDKDKPVSFHKFPLTRPSLCKEWEAAVRRKNFKPTKYSSICSEHFTPDCFKRECNNKLLKENAVPTIFLCYEPHDKKEDLLEPQEQLPPPPLPPPVSQVDAAIGLLMPPLQTPVNLSVFCDHNYTVEDTMHQRKRIHQLEQQVEKLRKKLKTAQQRCRRQERQLEKLKEVVHFQKEKDDVSERGYVILPNDYFEIVEVPA [T84Y]	1.82
MVQSCSAYGCKNRYDKDKPVSFHKSPLTRPSLCKEWEAAVRRKNFKPTKYSSICSEHFTPDCFKRECNNKLLKENAVPTIFLCTEPHDKKEDLLEPQEQLPPPPLPPPVSQVDAAIGLLMPPLQTPVNLSVFCDHNYTVEDTMHQRKRIHQLEQQVEKLRKKLKTAQQRCRRQERQLEKLKEVVHFQKEKDDVSERGYVILPNDYFEIVEVPA [F25S]	0.0861
MVQSCSAYGCKNRYDKDKPVSFHKFPLTRPSLCKEWEAAVRRKNFKPTKYSSICSEHFTPDCFKRECNNKLLKENAVPTIFLCTEPHDKKEDLLEPQEQLPPPPLPPPVSQVDAAIGLLMPPLQTPVNLSVFCDHNYTVEDTMHQRKRIHQLEQQVEKLRKKLKTAQQRCRLQERQLEKLKEVVHFQKEKDDVSERGYVILPNDYFEIVEVPA [R172L]	0.328
MVQSCSAYGCKNRYDKDKPVSFHKFPLTRPSLCKEWEAAVRRKNFKPTKYSSICSEHFTPDCFKRECNNKTLKENAVPTIFLCTEPHDKKEDLLEPQEQLPPPPLPPPVSQVDAAIGLLMPPLQTPVNLSVFCDHNYTVEDTMHQRKRIHQLEQQVEKLRKKLKTAQQRCRRQERQLEKLKEVVHFQKEKDDVSERGYVILPNDYFEIVEVPA [L71T]	0.52
MVQSCSAYGCKNRYDKDKPVSFHKFPLTRPSLCKEWEAAVRRKNFKPTKYSSICSEHFTPDCFKRECNNKFLKENAVPTIFLCTEPHDKKEDLLEPQEQLPPPPLPPPVSQVDAAIGLLMPPLQTPVNLSVFCDHNYTVEDTMHQRKRIHQLEQQVEKLRKKLKTAQQRCRRQERQLEKLKEVVHFQKEKDDVSERGYVILPNDYFEIVEVPA [L71F]	0.361
MVQSCSAYGCKNRYDKDKPVSFHKFPLTRHSLCKEWEAAVRRKNFKPTKYSSICSEHFTPDCFKRECNNKLLKENAVPTIFLCTEPHDKKEDLLEPQEQLPPPPLPPPVSQVDAAIGLLMPPLQTPVNLSVFCDHNYTVEDTMHQRKRIHQLEQQVEKLRKKLKTAQQRCRRQERQLEKLKEVVHFQKEKDDVSERGYVILPNDYFEIVEVPA [P30H]	0.384
MVQSCSAYGCKNRYDKDKPVSFHKFPLTRPSLCKEWEAAVRRKNFKPTKYSSICSEHFTPDCFKRECNNKLLKENAVPTIFLCTEPHDKKEDLLEPQEQLPPPPLPPPVSQVDAAIGLLMPPLQTPVNLSVFCDHNYTVEDTMHQRKRIHMLEQQVEKLRKKLKTAQQRCRRQERQLEKLKEVVHFQKEKDDVSERGYVILPNDYFEIVEVPA [Q151M]	0.894
MVQSCSAYGCKNRYDKDKPASFHKFPLTRPSLCKEWEAAVRRKNFKPTKYSSICSEHFTPDCFKRECNNKLLKENAVPTIFLCTEPHDKKEDLLEPQEQLPPPPLPPPVSQVDAAIGLLMPPLQTPVNLSVFCDHNYTVEDTMHQRKRIHQLEQQVEKLRKKLKTAQQRCRRQERQLEKLKEVVHFQKEKDDVSERGYVILPNDYFEIVEVPA [V20A]	0.135
MVQSCSAYGCKNRYDKDKPVSFHKFPLTRPSLCKEWEAAVRRKNFKPTKYSSICSEHFTPDCFKRECNNKLLKENAVPTIFLCTEPHDKKEDLLEPQEQLPPPPLPPPVSQVDAAIGLLMPPLQTPVNLSVFCDHNWTVEDTMHQRKRIHQLEQQVEKLRKKLKTAQQRCRRQERQLEKLKEVVHFQKEKDDVSERGYVILPNDYFEIVEVPA [Y137W]	0.0825
MVQSCSCYGCKNRYDKDKPVSFHKFPLTRPSLCKEWEAAVRRKNFKPTKYSSICSEHFTPDCFKRECNNKLLKENAVPTIFLCTEPHDKKEDLLEPQEQLPPPPLPPPVSQVDAAIGLLMPPLQTPVNLSVFCDHNYTVEDTMHQRKRIHQLEQQVEKLRKKLKTAQQRCRRQERQLEKLKEVVHFQKEKDDVSERGYVILPNDYFEIVEVPA [A7C]	0.163
MVQSCSWYGCKNRYDKDKPVSFHKFPLTRPSLCKEWEAAVRRKNFKPTKYSSICSEHFTPDCFKRECNNKLLKENAVPTIFLCTEPHDKKEDLLEPQEQLPPPPLPPPVSQVDAAIGLLMPPLQTPVNLSVFCDHNYTVEDTMHQRKRIHQLEQQVEKLRKKLKTAQQRCRRQERQLEKLKEVVHFQKEKDDVSERGYVILPNDYFEIVEVPA [A7W]	0.0983
MVQSCSAYGCKNRYDKDKPVSFHKFPLTRPSLCKEWEAAVRRKNFKPTKYSSICSEHFTPDCFKRECNNKLLKENAVPTIFLCTEPHDKKEDLLEPQEQLPPPPLPPPVSQVDAAIGLLMPPLQTPVNLSVFCDHNYTVEDTMHQRKRIHQLEQQVEKLRKKLKTAQQRCNRQERQLEKLKEVVHFQKEKDDVSERGYVILPNDYFEIVEVPA [R171N]	0.229
MVQSCSAYGCKNRYDKDKPVSFHKFPLTRPSLCKEWEAAVRRKNFKPTKYSSICSEHFTPDCFKRECNNKLLKENAVPTIFLCTEPHDKKEDLLEPQEQWPPPPLPPPVSQVDAAIGLLMPPLQTPVNLSVFCDHNYTVEDTMHQRKRIHQLEQQVEKLRKKLKTAQQRCRRQERQLEKLKEVVHFQKEKDDVSERGYVILPNDYFEIVEVPA [L100W]	0.65
MVQSCSAYGCKNRYDKDKPVSFHKFPLTRPSLCKEWEAAVRRKNFKPTKYSSICSEHFTPDCFKRECNNKLLKENAVPTIFLCTEPHDKKEDLLEPQEALPPPPLPPPVSQVDAAIGLLMPPLQTPVNLSVFCDHNYTVEDTMHQRKRIHQLEQQVEKLRKKLKTAQQRCRRQERQLEKLKEVVHFQKEKDDVSERGYVILPNDYFEIVEVPA [Q99A]	0.795
MVQSCSAYGCKNRYDKDKPVSFHKFPLTRPSLCKEWEAAVRRKNFKPTKYSSICSEHFTPDCFKRECNNKLLKENAVPTIFLCTEPHDKKEDLLEPQEHLPPPPLPPPVSQVDAAIGLLMPPLQTPVNLSVFCDHNYTVEDTMHQRKRIHQLEQQVEKLRKKLKTAQQRCRRQERQLEKLKEVVHFQKEKDDVSERGYVILPNDYFEIVEVPA [Q99H]	1.07
MVQSCSAYGCKNRYDKDKPVSFHKFPLTRPSLCKEWEAAVRRKNFKPTKYSSICSEHFTPDCFKRECNNKLLKENAVPTIFLCTEPHDKKEDLLEPQEQLPPPPLPPPVSQVDAAIGLLMPPLQTPVNLSVFCDHNYTVEDTMHERKRIHQLEQQVEKLRKKLKTAQQRCRRQERQLEKLKEVVHFQKEKDDVSERGYVILPNDYFEIVEVPA [Q145E]	0.577
MVQSCSAYDCKNRYDKDKPVSFHKFPLTRPSLCKEWEAAVRRKNFKPTKYSSICSEHFTPDCFKRECNNKLLKENAVPTIFLCTEPHDKKEDLLEPQEQLPPPPLPPPVSQVDAAIGLLMPPLQTPVNLSVFCDHNYTVEDTMHQRKRIHQLEQQVEKLRKKLKTAQQRCRRQERQLEKLKEVVHFQKEKDDVSERGYVILPNDYFEIVEVPA [G9D]	0.196
MVQSCSAYGCKNRYDKDKPVSFHKFPLTRPSLCKEWEAAVRRKNFKPTKYSSICSEHFTPDCFKRECNNKLLKENAVPTIFLCTEPHDKKEDLLEPQEQLPPPPLPPPVSQVDAAIGLLMPPLQTPVNLSVFCDHNYTVEDTMHQRKRIHQLEQQVNKLRKKLKTAQQRCRRQERQLEKLKEVVHFQKEKDDVSERGYVILPNDYFEIVEVPA [E157N]	0.914
MVQSCSAYGCKNRYDKDKPVSFHKFPLTRPSLCKEWEAAVRRKNFKPTKYSSICSEHFTPDCFKRECNNKLLKENAVPTIFLCTEPHDKKEDLLEPSEQLPPPPLPPPVSQVDAAIGLLMPPLQTPVNLSVFCDHNYTVEDTMHQRKRIHQLEQQVEKLRKKLKTAQQRCRRQERQLEKLKEVVHFQKEKDDVSERGYVILPNDYFEIVEVPA [Q97S]	0.872
MVQSCSAYGCKNRYDKDKPVSFHKFPLTRPSLCKEWEAAVRRKPFKPTKYSSICSEHFTPDCFKRECNNKLLKENAVPTIFLCTEPHDKKEDLLEPQEQLPPPPLPPPVSQVDAAIGLLMPPLQTPVNLSVFCDHNYTVEDTMHQRKRIHQLEQQVEKLRKKLKTAQQRCRRQERQLEKLKEVVHFQKEKDDVSERGYVILPNDYFEIVEVPA [N44P]	0.0859
MVQSCSAYGCKNRYDKDKPVSFHKFPLTRPSLCKEWQAAVRRKNFKPTKYSSICSEHFTPDCFKRECNNKLLKENAVPTIFLCTEPHDKKEDLLEPQEQLPPPPLPPPVSQVDAAIGLLMPPLQTPVNLSVFCDHNYTVEDTMHQRKRIHQLEQQVEKLRKKLKTAQQRCRRQERQLEKLKEVVHFQKEKDDVSERGYVILPNDYFEIVEVPA [E37Q]	0.337
MVQSCSAYGCKNRYDKDKPVSFHKFPLTRPSLCKEWEAAVRRKNFKPTKYSSICSEHFTPDCFKRECNNKLLPENAVPTIFLCTEPHDKKEDLLEPQEQLPPPPLPPPVSQVDAAIGLLMPPLQTPVNLSVFCDHNYTVEDTMHQRKRIHQLEQQVEKLRKKLKTAQQRCRRQERQLEKLKEVVHFQKEKDDVSERGYVILPNDYFEIVEVPA [K73P]	0.102
MVQSCSAYGCKNRYDKDKPVSFHKFPLTRPSLCKEWEAAVRRKNFKPTKYSSICSEHFTPDHFKRECNNKLLKENAVPTIFLCTEPHDKKEDLLEPQEQLPPPPLPPPVSQVDAAIGLLMPPLQTPVNLSVFCDHNYTVEDTMHQRKRIHQLEQQVEKLRKKLKTAQQRCRRQERQLEKLKEVVHFQKEKDDVSERGYVILPNDYFEIVEVPA [C62H]	0.173
MVQSCSAYGCKNRYDKDKPVSFHKFPLTRPSLCKEWEAAVRRKNFKPTKYSSICSEHFTPDCFKRECNNKLLKENAVPTIFLCTEPHDKKEDLLEPQEQLPPPPLPPPVSQVDAAIGLLMPPLQTPVNLSVFCDHNYTVEDTMHQRKRIHQLEQQVEELRKKLKTAQQRCRRQERQLEKLKEVVHFQKEKDDVSERGYVILPNDYFEIVEVPA [K158E]	0.562
MVQSCSAYGCKNRYDKDKPVSFHKFPLTRPSLCKEWEAAVRRKNFKPIKYSSICSEHFTPDCFKRECNNKLLKENAVPTIFLCTEPHDKKEDLLEPQEQLPPPPLPPPVSQVDAAIGLLMPPLQTPVNLSVFCDHNYTVEDTMHQRKRIHQLEQQVEKLRKKLKTAQQRCRRQERQLEKLKEVVHFQKEKDDVSERGYVILPNDYFEIVEVPA [T48I]	0.123
MVQSCSAYGCKNRYDKDKPVSFHKFPLTRPSLCKEWEAAVRRKNFKPTKYSSICSEHFTPDCFKRECNNKLLKENAVPTIFLCTEPHDKKMDLLEPQEQLPPPPLPPPVSQVDAAIGLLMPPLQTPVNLSVFCDHNYTVEDTMHQRKRIHQLEQQVEKLRKKLKTAQQRCRRQERQLEKLKEVVHFQKEKDDVSERGYVILPNDYFEIVEVPA [E91M]	0.596
MVQSCSAYGCKNRYDKDKPVSFHKFPLTRPSLCKEWEAAVRRKNFKPTKYSSWCSEHFTPDCFKRECNNKLLKENAVPTIFLCTEPHDKKEDLLEPQEQLPPPPLPPPVSQVDAAIGLLMPPLQTPVNLSVFCDHNYTVEDTMHQRKRIHQLEQQVEKLRKKLKTAQQRCRRQERQLEKLKEVVHFQKEKDDVSERGYVILPNDYFEIVEVPA [I53W]	0.052
